Test results taken from publication PMC13100509, “A milestone in C4 carbon concentration mechanism evolution: structural remodeling of NADP-malic enzyme in Poaceae” (Molecular Biology and Evolution, 2026).
Substitutions are numbered along the chain they refer to. Names may count otherwise. “And” between values parts separate entries of the source, which are not always exact repeats. Equal values may be shown once. Blank lines part the entries; values can stand above or below the molecule they belong to.

What was measured:
[1] = biological target: nonC4N172D mutant of maize nonC4-NADP-ME (maize (Zea mays)); experiment: native gel or EMSA; native PAGE (6% or 7%) of purified recombinant proteins, 100 V, 4 °C; Coomassie staining or in-gel NADP-ME activity assay; oligomeric state from mobility against native markers
[2] = biological target: nonC4Δ15 variant of maize nonC4-NADP-ME (maize (Zea mays)); experiment: as above
[3] = biological target: nonC4R208G mutant of maize nonC4-NADP-ME (maize (Zea mays)); experiment: as above
[4] = biological target: C4 + 15 variant of maize C4-NADP-ME (maize (Zea mays)) (UniProt P16243); experiment: as above
[5] = biological target: nonC4R171T mutant of maize nonC4-NADP-ME (maize (Zea mays)); experiment: as above
[6] = biological target: nonC4Δ15 with R171T (maize (Zea mays)); experiment: as above
[7] = biological target: nonC4Δ15 with R208G (maize (Zea mays)); experiment: as above
[8] = biological target: plastidic nonC4-NADP-ME from maize extracts (maize (endogenous in maize etiolated leaves and roots)); experiment: native gel or EMSA; native PAGE (7%) of maize extracts of etiolated leaves and roots; in-gel NADP-ME activity assay, active bands excised and identified by mass spectrometry; mobility compared with the recombinant proteins
[9] = biological target: nonC4Δ15 with N172D (maize (Zea mays)); experiment: native gel or EMSA; native PAGE (6% or 7%) of purified recombinant proteins, 100 V, 4 °C; Coomassie staining or in-gel NADP-ME activity assay; oligomeric state from mobility against native markers
[10] = biological target: nonC4Δ15 with I148F (maize (Zea mays)); experiment: as above
[11] = biological target: maize Cyt2-NADP-ME, recombinant wild type (maize (Zea mays)); experiment: as above
[12] = biological target: nonC4I148F mutant of maize nonC4-NADP-ME (maize (Zea mays)); experiment: as above
[13] = biological target: the molecule itself; experiment: as above
[14] = substrate: O=C(O)C[C@H](O)C(=O)O; experiment: purified protein; type: biochemical, Zea mays; settings: pH 8.0, 25 °C, 0.5 mM NADP, 10 mM MgCl2

- stoichiometry N [1]: 4
Molecule: nonC4N172D mutant of maize nonC4-NADP-ME (enzyme)

- stoichiometry N [2]: 2
Molecule: nonC4Δ15 variant of maize nonC4-NADP-ME (enzyme)

- stoichiometry N [3]: 4
Molecule: nonC4R208G mutant of maize nonC4-NADP-ME (enzyme)

- stoichiometry N [4]: 4
Molecule: C4 + 15 variant of maize C4-NADP-ME (from UniProt P16243 63-636) (enzyme)

- stoichiometry N [5]: 2 and 4
Molecule: nonC4R171T mutant of maize nonC4-NADP-ME (enzyme)

- stoichiometry N [6]: 4 and 2
Molecule: nonC4Δ15 with R171T (enzyme)

- stoichiometry N [7]: 4
Molecule: nonC4Δ15 with R208G (enzyme)

- stoichiometry N [8]: 2
Molecule: plastidic nonC4-NADP-ME from maize extracts (enzyme)

- stoichiometry N [9]: 4
Molecule: nonC4Δ15 with N172D (enzyme)

- stoichiometry N [10]: 4 and 2
Molecule: nonC4Δ15 with I148F (enzyme)

- stoichiometry N [11]: 4
Molecule: maize Cyt2-NADP-ME, recombinant wild type (enzyme)

- stoichiometry N [12]: 2
Molecule: nonC4I148F mutant of maize nonC4-NADP-ME (enzyme)

B1: C4N15GR variant of maize C4-NADP-ME (enzyme)
chain: AAGVVVEDHYGEDSASEELPVMPWATSVASGYTLLRDPHHNKGLAFTEEERDGHYLRGLLPPAVLSQELQIKKFMNTLRQYQTPLQRYIAMMNLQETDERLFYKLLIDNVVELLPFVYTPTVGEACQKYGSIFRRPQGLYVSLKDKGKVLEVLRNWPHRNIQVICVTDGERILGLGDLGCQGMGIPVGKLALYTALGGVDPSVCLPITIDVGTNNEKLLNDEFYIGLRQKRATGEEYDELIEEFMSAVKQFYGEKVLIQFEDFANHNAFDLLEKYSKSHLVFNDDIQGTASVVLAGLLAALKMVGGTLAEQTYLFLGAGEAGTGIAELIALEISKQTNAPIEECRKKVWLVDSKGLIVDSRKGSLQPFKKPWAHEHEPLKTLYDAVQSIKPTVLIGTSGVGRTFTKEIIEAMSSFNERPIIFSLSNPTSHSECTAEQAYTWSQGRSIFASGSPFAPVEYEGKTFVPGQSNNAYIFPGLGLGLVISGAVRVHEDMLLAASKALADQATQDNFEKGSIFPPFTSIRKISAHIAAAVAAKAYELGLATRLPPPSDLVKYAENCMYTPVYRNYR
- stoichiometry N [13]: 2

B2: C4-NADP-ME (Zea mays) (protein)
chain: AMVSNAETETEKEQEEAAAASEELPVMPWATSVASGYTLLRDPHHNKGLAFTEEERDGHYLRGLLPPAVLSQELQIKKFMNTLRQYQTPLQRYIAMMNLQETDERLFYKLLIDNVVELLPFVYTPTVGEACQKYGSIFGRPQGLYVSLKDKGKVLEVLRNWPHRNIQVICVTDGERILGLGDLGCQGMGIPVGKLALYTALGGVDPSVCLPITIDVGTNNEFLLNDEFYIGLRQKRATGEEYDELIEEFMSAVKQFYGEKVLIQFEDFANHNAFDLLEKYSKSHLVFNDDIQGTASVVLAGLLAALKMVGGTLAEQTYLFLGAGEAGTGIAELIALEISKQTNAPIEECRKKVWLVDSKGLIVDSRKGSLQPFKKPWAHEHEPLKTLYDAVQSIKPTVLIGTSGVGRTFTKEIIEAMSSFNERPIIFSLSNPTSHSECTAEQAYTWSQGRSIFASGSPFAPVEYEGKTFVPGQSNNAYIFPGLGLGLVISGAVRVHEDMLLAASKALADQATQDNFEKGSIFPPFTSIRKISAHIAAAVAGKAYELGLATRLPPPSDLVKYAENCMYTPVYRNYR
notes: mature protein without transit peptide, E. coli, pET16b His-tag (Factor Xa site); homotetramer about 250 kDa
- Km [14]: 170 ± 20 µM
- kcat [14]: 67.5 ± 1.4 s⁻¹

B3: C4-NADP-ME (Zea mays; G200R) (protein)
chain: B2 chain with G139R
notes: as for B2
- Km [14]: 2450 ± 450 µM
- kcat [14]: 21.6 ± 0.8 s⁻¹

B4: C4T163R mutant of maize C4-NADP-ME (enzyme, maize (Zea mays), UniProt P16243 63-636, looked up)
chain: MVSNAETETEKEQEEAAAASEELPVMPWATSVASGYTLLRDPHHNKGLAFTEEERDGHYLRGLLPPAVLSQELQIKKFMNTLRQYQTPLQRYIAMMNLQERDERLFYKLLIDNVVELLPFVYTPTVGEACQKYGSIFGRPQGLYVSLKDKGKVLEVLRNWPHRNIQVICVTDGERILGLGDLGCQGMGIPVGKLALYTALGGVDPSVCLPITIDVGTNNEFLLNDEFYIGLRQKRATGEEYDELIEEFMSAVKQFYGEKVLIQFEDFANHNAFDLLEKYSKSHLVFNDDIQGTASVVLAGLLAALKMVGGTLAEQTYLFLGAGEAGTGIAELIALEISKQTNAPIEECRKKVWLVDSKGLIVDSRKGSLQPFKKPWAHEHEPLKTLYDAVQSIKPTVLIGTSGVGRTFTKEIIEAMSSFNERPIIFSLSNPTSHSECTAEQAYTWSQGRSIFASGSPFAPVEYEGKTFVPGQSNNAYIFPGLGLGLVISGAVRVHEDMLLAASKALADQATQDNFEKGSIFPPFTSIRKISAHIAAAVAGKAYELGLATRLPPPSDLVKYAENCMYTPVYRNYR
notes: C4-NADP-malic enzyme (ZmC4-NADP-ME), plastidic C4 isoform of maize; source: E. coli Rosetta2 (DE3) or ArcticExpress (DE3), purified (Ni-NTA)
- stoichiometry N [13]: 2 and 4

B5: C4D164N mutant of maize C4-NADP-ME (enzyme, maize (Zea mays), UniProt P16243 63-636, looked up)
chain: B4 chain with R101T, D102N
notes: as for B4
- stoichiometry N [13]: 2 and 4

B6: C4Y632F mutant of maize C4-NADP-ME (enzyme, maize (Zea mays), UniProt P16243 63-636, looked up)
chain: B4 chain with R101T, Y570F
notes: as for B4
- binding result [13]: binds

B7: C4G200R mutant of maize C4-NADP-ME (enzyme, maize (Zea mays), UniProt P16243 63-636, looked up)
chain: B4 chain with R101T, G138R
notes: C4-NADP-malic enzyme (ZmC4-NADP-ME), plastidic C4 isoform of maize; also called C4-NADP-ME-G200R; source: E. coli Rosetta2 (DE3) or ArcticExpress (DE3), purified (Ni-NTA)
- stoichiometry N [13]: 2

B8: C4NnC4GR variant of maize C4-NADP-ME (enzyme)
chain: AAEMEQEEAEVAAAAAGVVVEDHYGEDSASEELPVMPWATSVASGYTLLRDPHHNKGLAFTEEERDGHYLRGLLPPAVLSQELQIKKFMNTLRQYQTPLQRYIAMMNLQETDERLFYKLLIDNVVELLPFVYTPTVGEACQKYGSIFRRPQGLYVSLKDKGKVLEVLRNWPHRNIQVICVTDGERILGLGDLGCQGMGIPVGKLALYTALGGVDPSVCLPITIDVGTNNEKLLNDEFYIGLRQKRATGEEYDELIEEFMSAVKQFYGEKVLIQFEDFANHNAFDLLEKYSKSHLVFNDDIQGTASVVLAGLLAALKMVGGTLAEQTYLFLGAGEAGTGIAELIALEISKQTNAPIEECRKKVWLVDSKGLIVDSRKGSLQPFKKPWAHEHEPLKTLYDAVQSIKPTVLIGTSGVGRTFTKEIIEAMSSFNERPIIFSLSNPTSHSECTAEQAYTWSQGRSIFASGSPFAPVEYEGKTFVPGQSNNAYIFPGLGLGLVISGAVRVHEDMLLAASKALADQATQDNFEKGSIFPPFTSIRKISAHIAAAVAAKAYELGLATRLPPPSDLVKYAENCMYTPVYRNYR
- stoichiometry N [13]: 2
